Key:
[1] = target: wtEGFR: full-length human EGFR with FLAG tag after the leader, on BaF/3 cells (human) (UniProt P00533); assay: FACS median fluorescence, wtEGFR-BaF/3 cells preincubated with mAb[…] (10 µg/ml, 37 C, 1 hr)
[2] = target: wtEGFR: full-length human EGFR with FLAG tag after the leader, on BaF/3 cells (human) (UniProt P00533); assay: FACS, wtEGFR-BaF/3 cells after mock preincubation, antibody at 10 µg/ml
[3] = target: wtEGFR: full-length human EGFR with FLAG tag after the leader, on BaF/3 cells (human) (UniProt P00533); assay: FACS median fluorescence, wtEGFR-BaF/3 cells preincubated with EGF (10 ng/ml, 4 C, 15 min)
[4] = target: EGFR 273-621 C287R, yeast surface displayed (UniProt P00533); assay: from titration on yeast surface displayed fragments
[5] = target: EGFR 273-621 E293K, yeast surface displayed (UniProt P00533); assay: as above
[6] = target: wild-type EGFR 273-621 (C283A template), yeast surface displayed, C-terminal c-myc tag (UniProt P00533); assay: titration on yeast surface displayed fragment, flow cytometry, global fit of three data sets
[7] = target: EGFR 273-621 C287R, yeast surface displayed (UniProt P00533); assay: as above

monoclonal antibody 806 (mAb 806), murine IgG2b anti-EGFR, sequence (VH): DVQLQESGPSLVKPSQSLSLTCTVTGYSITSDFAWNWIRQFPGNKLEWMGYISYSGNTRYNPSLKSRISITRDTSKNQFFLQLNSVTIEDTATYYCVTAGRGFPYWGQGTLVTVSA
monoclonal antibody 806 (mAb 806), murine IgG2b anti-EGFR, sequence (VL): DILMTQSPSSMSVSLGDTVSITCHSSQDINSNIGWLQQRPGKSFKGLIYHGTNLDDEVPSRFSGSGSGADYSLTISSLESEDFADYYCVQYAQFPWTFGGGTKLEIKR

| change (%) in antibody reactivity after preincubation [1] | median fluorescence [2] | change (%) in antibody reactivity after preincubation [3] | ΔΔG compared to wild-type [4] | ΔΔG compared to wild-type [5] | Kd [6] | Kd [7] | Substance |
| --- | --- | --- | --- | --- | --- | --- | --- |
| -3% | 112 | -23% |  |  |  |  | monoclonal antibody 528 (mAb 528), IgG2a anti-EGFR |
| 163% | 7 | -48% | 2.4 kcal/mol | 5.7 kcal/mol | 2.13 nM | 127 nM | monoclonal antibody 806 (mAb 806), murine IgG2b anti-EGFR |

Reference: patent US20100322937A1
